Data: US20120058906A1 (published 2012)
One block for each binder: values may come before it.

How the values were obtained:
[1] = target: T1, rHuman EGF R/Fc Chimera, CF (R&D Systems Cat#344-ER) (human, UniProt P00533 25-645); experiment: ECL (MSD multi-spot), antigen on plate, Fab 2 nM
T1 construct: Bought Fc chimera; also called ErbB-1; not shown: Fc of the bought chimera

[2] = target: T2, rHuman CD44/Fc Chimera, CF (R&D Systems Cat#3660-CD) (human, UniProt P16070 21-220); experiment: ECL (MSD multi-spot), antigen on plate, Fab 2 nM
T2 construct: Bought Fc chimera; not shown: Fc of the bought chimera

[3] = target: T3, rHuman P-Cadherin/Fc Chimera, CF (R&D Systems Cat#861-PC) (human, UniProt P22223 108-654); experiment: ECL (MSD multi-spot), antigen on plate, Fab 0.4 nM
T3 construct: Bought Fc chimera; also called CDH3; not shown: Fc of the bought chimera

[4] = target: T4, Recombinant Human DLL4 (R&D Systems Cat#1506-D4/CF) (human, UniProt Q9NR61 27-524); experiment: ECL (MSD multi-spot), antigen on plate, Fab 2 nM
T4 construct: Bought recombinant protein; also called delta-like protein 4

[5] = target: T3, rHuman P-Cadherin/Fc Chimera, CF (R&D …); experiment: ECL (MSD multi-spot), antigen on plate, Fab 2 nM
[6] = target: T5, rHuman Erythropoietin R/Fc Chimera, CF (R&D Systems Cat#963-ER) (human, UniProt P19235 25-250); experiment: ECL (MSD multi-spot), antigen on plate, Fab 2 nM
T5 construct: Bought Fc chimera; also called EPO R/Fc; Epo R; not shown: Fc of the bought chimera
T5 sequence: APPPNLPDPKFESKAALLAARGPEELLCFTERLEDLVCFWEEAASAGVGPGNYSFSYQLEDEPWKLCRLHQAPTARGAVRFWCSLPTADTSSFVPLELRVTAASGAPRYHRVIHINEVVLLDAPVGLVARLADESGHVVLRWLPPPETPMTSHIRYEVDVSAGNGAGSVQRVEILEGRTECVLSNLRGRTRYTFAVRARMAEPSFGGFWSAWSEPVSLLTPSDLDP

[7] = target: T1, rHuman EGF R/Fc Chimera, CF (R&D …); experiment: ECL (MSD multi-spot), antigen on plate, Fab 2 nM; remark: listed apart in the source
[8] = target: T2, rHuman CD44/Fc Chimera, CF (R&D Systems …); experiment: ECL (MSD multi-spot), antigen on plate, Fab 2 nM; remark: listed apart in the source
[9] = target: T6, rHuman ErbB2/Fc Chimera, CF (R&D Systems Cat#1129-ER) (human, UniProt P04626 23-652); experiment: ECL (MSD multi-spot), antigen on plate, Fab 2 nM
T6 construct: Bought Fc chimera; also called HER2/neu; not shown: Fc of the bought chimera

[10] = target: T7, rHuman HGF R/c-MET/Fc Chimera, CF (R&D Systems Cat#358-MT/CF) (human, UniProt P08581 25-932); experiment: ECL (MSD multi-spot), antigen on plate, Fab 2 nM
T7 construct: Bought Fc chimera; also called HGF R/Fc; not shown: Fc of the bought chimera

[11] = target: T8, rHuman Notch-1/Fc Chimera, CF (R&D Systems Cat#3647-TK) (human, UniProt P46531 19-526); experiment: ECL (MSD multi-spot), antigen on plate, Fab 2 nM
T8 construct: Bought Fc chimera; not shown: Fc of the bought chimera

[12] = target: T9, rHuman IGF-1 sR (insulin-like growth factor-1 soluble receptor), CF (R&D Systems Cat#391-GR) (human, UniProt P08069 31-932); experiment: ECL (MSD multi-spot), antigen on plate, Fab 2 nM
T9 construct: Bought soluble receptor; also called IGF-R1

[13] = target: T10, rHuman Erythropoietin R/Fc Chimera, CF (R&D Systems Cat#963-ER) (human, UniProt P19235 25-250); experiment: ECL (MSD Multi-Spot) binding assay, antigen spotted on plate; Fab 154 nM; blank spot 447
T10 construct: Bought Fc chimera; also called EPO R/Fc; Epo R; Fc part of the bought chimera not given
T10 sequence: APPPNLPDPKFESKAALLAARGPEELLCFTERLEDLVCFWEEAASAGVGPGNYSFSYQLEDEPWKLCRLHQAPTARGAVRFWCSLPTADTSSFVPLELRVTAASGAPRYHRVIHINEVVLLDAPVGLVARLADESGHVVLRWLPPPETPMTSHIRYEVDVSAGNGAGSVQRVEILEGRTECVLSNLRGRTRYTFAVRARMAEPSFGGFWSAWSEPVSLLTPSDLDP

[14] = target: T11, Recombinant Human DLL4 (R&D Systems Cat#1506-D4/CF) (human, UniProt Q9NR61 27-524); experiment: as above
T11 construct: Bought recombinant protein; also called delta-like protein 4; rHuman DLL4

[15] = target: T12, rHuman ErbB2/Fc Chimera, CF (R&D Systems Cat#1129-ER) (human, UniProt P04626 23-652); experiment: as above
T12 construct: Bought Fc chimera; also called HER2/neu; human epidermal growth factor 2 receptor; Fc part of the bought chimera not given

[16] = target: T13, rHuman CD44/Fc Chimera, CF (R&D Systems Cat#3660-CD) (human, UniProt P16070 21-220); experiment: as above
T13 construct: Bought Fc chimera; Fc part of the bought chimera not given

[17] = target: T14, rHuman EGF R/Fc Chimera, CF (R&D Systems Cat#344-ER) (human, UniProt P00533 25-645); experiment: as above
T14 construct: Bought Fc chimera; also called epidermal growth factor receptor; Fc part of the bought chimera not given

[18] = target: T15, rHuman Notch-1/Fc Chimera, CF (R&D Systems Cat#3647-TK) (human, UniProt P46531 19-526); experiment: as above
T15 construct: Bought Fc chimera; Fc part of the bought chimera not given

[19] = target: T16, rHuman IGF-1 sR (IGF-1 sR), CF (R&D Systems Cat#391-GR) (human, UniProt P08069 31-932); experiment: as above
T16 construct: Bought soluble receptor; also called insulin-like growth factor-1 soluble receptor; IGF-R1
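Note: blank spot per well as comparator with Hit at signal to blank ratio of 4 or more.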

ECL signal [1]: 352 ECL signal
ECL signal [2]: 266 ECL signal
B1: Fab VH1-46_IGHD6-6*01_IGHJ1*01_S102A_S103P_S104F & L6_IGKJ1*01_S28P (Fab, V domains shown)
VH: QVQLVQSGAEVKKPGASVKVSCKASGYTFTSYYMHWVRQAPGQGLEWMGIINPSGGSTSYAQKFQGRVTMTRDTSTSTVYMELSSLRSEDTAVYYCAREEYAPFSAEYFQHWGQGTLVTVSS
VL: EIVLTQSPATLSLSPGERATLSCRASQPVSSYLAWYQQKPGQAPRLLIYDASNRATGIPARFSGSGSGTDFTLTISSLEPEDFAVYYCQQRSNWPPWTFGQGTKVEIKR
notes: Fab

ECL signal [3]: 151 ECL signal
ECL signal [4]: 10500 ECL signal
ECL signal [5]: 351 ECL signal
ECL signal [6]: 326 ECL signal
ECL signal [7]: 197 ECL signal
ECL signal [8]: 146 ECL signal
ECL signal [9]: 337 ECL signal
ECL signal [10]: 183 ECL signal
ECL signal [11]: 202 ECL signal
ECL signal [12]: 222 ECL signal
B2: Fab VH1-46_IGHD6-6*01_IGHJ1*01_S102A_S103P_S104F & L6_IGKJ1*01_S31K (Fab, V domains shown)
VH: QVQLVQSGAEVKKPGASVKVSCKASGYTFTSYYMHWVRQAPGQGLEWMGIINPSGGSTSYAQKFQGRVTMTRDTSTSTVYMELSSLRSEDTAVYYCAREEYAPFSAEYFQHWGQGTLVTVSS
VL: EIVLTQSPATLSLSPGERATLSCRASQSVSKYLAWYQQKPGQAPRLLIYDASNRATGIPARFSGSGSGTDFTLTISSLEPEDFAVYYCQQRSNWPPWTFGQGTKVEIKR
notes: Fab

ECL signal [13]: 1200
ECL signal [14]: 40400
ECL signal [15]: 1590
ECL signal [16]: 960
ECL signal [17]: 1400
ECL signal [18]: 929
ECL signal [19]: 1400
B3: Fab VH5-51_IGHD5-18*01>3_IGHJ4*01 & V3-4_IGLJ1*01 (Fab, V domains shown)
VH: EVQLVQSGAEVKKPGESLKISCKGSGYSFTSYWIGWVRQMPGKGLEWMGIIYPGDSDTRYSPSFQGQVTISADKSISTAYLQWSSLKASDTAMYYCARRGYSYGYDYFDYWGQGTLVTVSS
VL: QTVVTQEPSFSVSPGGTVTLTCGLSSGSVSTSYYPSWYQQTPGQAPRTLIYSTNTRSSGVPDRFSGSILGNKAALTITGAQADDESDYYCVLYMGSGISYVFGTGTKVTVL
notes: Tested as a Fab made in E. coli; also called IGHV5-51*03
